Changes are numbered by the printed parent chain. In names and notes the source's numbering stands. One block for each molecule: values may come before it.
What was measured:
[1] = target: CHIP-myc ΔStartCodon (c.3G>A) (human) (UniProt Q9UNE7); assay: native gel or EMSA
[2] = target: CHIP Y230Cfs*9, recombinant (human) (UniProt Q9UNE7); assay: mass photometry
[3] = target: T1, CHIP-myc wild type (human), Q9UNE7; assay: native gel or EMSA; details: remark: other sources report otherwise
T1 chain: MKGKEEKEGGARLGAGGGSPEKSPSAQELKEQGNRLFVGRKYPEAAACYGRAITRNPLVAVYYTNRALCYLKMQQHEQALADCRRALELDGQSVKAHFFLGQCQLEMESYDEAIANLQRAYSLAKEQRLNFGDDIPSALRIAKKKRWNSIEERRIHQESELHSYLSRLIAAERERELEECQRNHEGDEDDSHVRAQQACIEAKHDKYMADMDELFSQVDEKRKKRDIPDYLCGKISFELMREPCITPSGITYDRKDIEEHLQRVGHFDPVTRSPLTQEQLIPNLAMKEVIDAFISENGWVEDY

[4] = target: T2, CHIP-myc K30A (human), Q9UNE7; assay: native gel or EMSA; details: remark: other sources report otherwise
T2 chain: T1 chain with K30A

stoichiometry N [1]: 2
Molecule: CHIP-myc ΔStartCodon (c.3G>A) (from UniProt Q9UNE7-1 1-303) (natural protein)

stoichiometry N [4]: 2
B2: CHIP-myc K30A, Q9UNE7-1 1-303 (natural protein)
chain: T1 chain with K30A

Continued, molecule first:

Molecule: CHIP Y230Cfs*9, recombinant (from UniProt Q9UNE7-1 1-303) (natural protein)
percent of the protein as dimers [2]: 80%
stoichiometry N [2]: 2

B1: CHIP-myc wild type, Q9UNE7-1 1-303 (natural protein)
chain: T1 chain
stoichiometry N [3]: 2

From paper doi:10.1101/2025.11.26.690709
